Reference: article PMC5555194, “Disease-linked mutations in factor H reveal pivotal role of cofactor activity in self-surface–selective regulation of complement activation” (The Journal of Biological Chemistry, 2017)
Substitutions are numbered along the chain they refer to. In names and notes the source's numbering stands. Several values for one entry are separate records, joined by “and”; a condition that tells them apart may be missing. Equal entries are not always repeated.

How the values were obtained:
C3b [1] = biological target: T1, C3b (human, UniProt P01024 23-667; P01024 749-1663); assay: SPR; C3b amine-coupled to a Biacore C1 chip; dilution series of CFH (from 2.5 to 0.019 uM), preincubated with or without a 2-fold molar excess of PspCN, flowed over; Biacore T200, 25 °C, 10 mM HEPES, 150 mM NaCl, 0.05% P20; 1:1 steady-state model; three experiments on different chips; conditions: both partners purified
T1 construct: Amine-coupled to the sensor chip; source: bought: Complement Technology (plasma-derived, human)

C3b [2] = biological target: T1, C3b; assay: as above; conditions: both partners purified; remark: listed apart in the source

T1 sequence (P01024 23-667, chain 1 of 2): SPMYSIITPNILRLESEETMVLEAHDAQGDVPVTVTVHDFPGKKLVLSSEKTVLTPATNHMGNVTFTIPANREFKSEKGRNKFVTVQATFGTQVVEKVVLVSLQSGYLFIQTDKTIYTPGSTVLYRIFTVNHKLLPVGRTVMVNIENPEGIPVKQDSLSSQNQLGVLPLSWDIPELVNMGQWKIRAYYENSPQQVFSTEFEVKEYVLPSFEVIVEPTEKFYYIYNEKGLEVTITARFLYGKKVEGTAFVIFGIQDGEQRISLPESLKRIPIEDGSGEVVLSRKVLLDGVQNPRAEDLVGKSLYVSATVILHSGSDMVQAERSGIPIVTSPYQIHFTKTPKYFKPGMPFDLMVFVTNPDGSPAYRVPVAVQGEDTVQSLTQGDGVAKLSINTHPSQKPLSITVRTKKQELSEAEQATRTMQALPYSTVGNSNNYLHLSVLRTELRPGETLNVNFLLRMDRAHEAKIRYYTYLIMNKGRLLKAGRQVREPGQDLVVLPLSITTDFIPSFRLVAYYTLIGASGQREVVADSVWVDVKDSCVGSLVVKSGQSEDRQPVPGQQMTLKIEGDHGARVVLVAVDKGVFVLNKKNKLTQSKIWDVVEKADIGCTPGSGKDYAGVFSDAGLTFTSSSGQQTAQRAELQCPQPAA
T1 sequence (P01024 749-1663, chain 2 of 2): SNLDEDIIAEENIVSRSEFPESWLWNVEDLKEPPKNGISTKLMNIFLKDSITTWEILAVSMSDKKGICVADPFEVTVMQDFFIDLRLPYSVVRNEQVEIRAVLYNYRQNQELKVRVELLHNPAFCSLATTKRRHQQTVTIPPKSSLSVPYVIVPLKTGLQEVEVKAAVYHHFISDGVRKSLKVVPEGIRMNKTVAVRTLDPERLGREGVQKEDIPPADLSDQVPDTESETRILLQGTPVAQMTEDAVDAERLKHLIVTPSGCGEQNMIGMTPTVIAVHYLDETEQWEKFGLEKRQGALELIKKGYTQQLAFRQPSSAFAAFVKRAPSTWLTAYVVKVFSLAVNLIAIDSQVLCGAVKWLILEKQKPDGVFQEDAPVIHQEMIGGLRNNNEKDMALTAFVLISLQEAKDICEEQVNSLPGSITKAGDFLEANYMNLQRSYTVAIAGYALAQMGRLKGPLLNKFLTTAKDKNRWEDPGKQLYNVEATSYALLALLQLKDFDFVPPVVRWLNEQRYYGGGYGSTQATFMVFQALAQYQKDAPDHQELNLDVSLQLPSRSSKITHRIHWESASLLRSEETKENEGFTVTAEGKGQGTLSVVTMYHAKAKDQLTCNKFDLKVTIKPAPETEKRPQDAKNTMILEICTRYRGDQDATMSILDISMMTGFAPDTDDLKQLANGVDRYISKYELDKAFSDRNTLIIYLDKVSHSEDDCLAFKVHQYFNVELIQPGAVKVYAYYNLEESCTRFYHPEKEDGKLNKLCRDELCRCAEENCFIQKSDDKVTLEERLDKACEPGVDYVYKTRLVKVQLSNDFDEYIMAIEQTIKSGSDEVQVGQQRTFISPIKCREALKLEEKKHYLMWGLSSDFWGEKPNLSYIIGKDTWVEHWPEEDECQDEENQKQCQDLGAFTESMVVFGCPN

B1: I62-CFH (recombinant human complement factor H, variant Ile-62, Tyr-402, Asp-936) (natural protein, UniProt P08603 19-1231, looked up)
chain: EDCNELPPRRNTEILTGSWSDQTYPEGTQAIYKCRPGYRSLGNIIMVCRKGEWVALNPLRKCQKRPCGHPGDTPFGTFTLTGGNVFEYGVKAVYTCNEGYQLLGEINYRECDTDGWTNDIPICEVVKCLPVTAPENGKIVSSAMEPDREYHFGQAVRFVCNSGYKIEGDEEMHCSDDGFWSKEKPKCVEISCKSPDVINGSPISQKIIYKENERFQYKCNMGYEYSERGDAVCTESGWRPLPSCEEKSCDNPYIPNGDYSPLRIKHRTGDEITYQCRNGFYPATRGNTAKCTSTGWIPAPRCTLKPCDYPDIKHGGLYHENMRRPYFPVAVGKYYSYYCDEHFETPSGSYWDHIHCTQDGWSPAVPCLRKCYFPYLENGYNQNYGRKFVQGKSIDVACHPGYALPKAQTTVTCMENGWSPTPRCIRVKTCSKSSIDIENGFISESQYTYALKEKAKYQCKLGYVTADGETSGSITCGKDGWSAQPTCIKSCDIPVFMNARTKNDFTWFKLNDTLDYECHDGYESNTGSTTGSIVCGYNGWSDLPICYERECELPKIDVHLVPDRKKDQYKVGEVLKFSCKPGFTIVGPNSVQCYHFGLSPDLPICKEQVQSCGPPPELLNGNVKEKTKEEYGHSEVVEYYCNPRFLMKGPNKIQCVDGEWTTLPVCIVEESTCGDIPELEHGWAQLSSPPYYYGDSVEFNCSESFTMIGHRSITCIHGVWTQLPQCVAIDKLKKCKSSNLIILEEHLKNKKEFDHNSNIRYRCRGKEGWIHTVCINGRWDPEVNCSMAQIQLCPPPPQIPNSHNMTTTLNYRDGEKVSVLCQENYLIQEGEEITCKDGRWQSIPLCVEKIPCSQPPQIEHGTINSSRSSQESYAHGTKLSYTCEGGFRISEENETTCYMGKWSSPPQCEGLPCKSPPDISHGVVAHMSDSYQYGEEVTYKCFEGFGIDGPAIAKCLGEKWSHPPSCIKTDCLSLPSFENAIPMGEKKDVYKAGEQVTYTCATYYKMDGASNVTCINSRWTGRPTCRDTSCVNPPTVQNAYIVSRQMSKYPSGERVRYQCRSPYEMFGDEEVMCLNGNWTEPPQCKDSTGKCGPPPPIDNGDITSFPLSVYAPASSVEYQCQNLYQLEGNKRITCRNGQWSEPPKCLHPCVISREIMENYNIALRWTAKQKLYSRTGESVEFVCKRGYRLSSRSHTLRTTCWDGKLEYPTCAKR
modifications: N-glycans trimmed to the first GlcNAc residues (EndoHf)
notes: complement factor H (CFH), human, CCPs 1-20, allotypic variant Ile-62, Tyr-402, Asp-936; Expressed from the vector pPICZaB and secreted; also called I62,D936-CFH; IYD-CFH; source: P. pastoris KM71H, secreted, enzymatically deglycosylated, chromatographically purified
Kd (C3b [1]): 1 to 1.3 µM

B2: S1191L/V1197A-CFH (LA-CFH, on Ile-62 background) (natural protein, human, UniProt P08603 19-1231, looked up)
chain: B1 chain with S1173L, V1179A
modifications: N-glycans trimmed to the first GlcNAc residues (EndoHf)
notes: complement factor H (CFH), human, CCPs 1-20, aHUS-linked double mutation S1191L/V1197A on the background Ile-62, Tyr-402, Asp-936; Expressed from the vector pPICZaB and secreted; the native signal peptide is probably absent; source: P. pastoris KM71H, secreted, enzymatically deglycosylated, chromatographically purified
Kd (C3b [2]): 0.83 µM and 0.86 µM

B3: V62-CFH (recombinant human complement factor H, variant Val-62, Tyr-402, Glu-936) (natural protein, UniProt P08603 19-1231, looked up)
chain: B1 chain with I44V, D918E
modifications: N-glycans trimmed to the first GlcNAc residues (EndoHf)
notes: complement factor H (CFH), human, CCPs 1-20, allotypic variant Val-62, Tyr-402, Glu-936; Expressed from the vector pPICZaB and secreted; also called V62,E936-CFH; recombinant CFH; source: P. pastoris KM71H, secreted, enzymatically deglycosylated, chromatographically purified
Kd (C3b [2]): 0.27 µM

B4: R53H-CFH (on Ile-62 background) (natural protein, human, UniProt P08603 19-1231, looked up)
chain: B1 chain with R35H
modifications: N-glycans trimmed to the first GlcNAc residues (EndoHf)
notes: complement factor H (CFH), human, CCPs 1-20, aHUS-linked mutation R53H on the background Ile-62, Tyr-402, Asp-936; Expressed from the vector pPICZaB and secreted; the native signal peptide is probably absent; also called R53-CFH; source: P. pastoris KM71H, secreted, enzymatically deglycosylated, chromatographically purified
Kd (C3b [1]): 1 µM
Kd (C3b [2]): 1.2 µM and 1.8 µM
